{"source": "paper PMC3467252", "experiment_in_all_cases": "SPR; surface plasmon resonance; who was immobilised is not told in what was shown; mean +/- 95% CI, n=3", "key": {"[1]": {"biological_target": "BCMA-Fc (UniProt Q02223)", "sequence (Q02223 1-54)": "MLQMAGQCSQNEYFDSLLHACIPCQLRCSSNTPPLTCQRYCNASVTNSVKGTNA"}, "[2]": {"biological_target": "TACI-Fc (extracellular domain of the BLyS receptor TACI fused to the Fc region of human IgG1) (UniProt O14836)", "sequence (O14836 1-165)": "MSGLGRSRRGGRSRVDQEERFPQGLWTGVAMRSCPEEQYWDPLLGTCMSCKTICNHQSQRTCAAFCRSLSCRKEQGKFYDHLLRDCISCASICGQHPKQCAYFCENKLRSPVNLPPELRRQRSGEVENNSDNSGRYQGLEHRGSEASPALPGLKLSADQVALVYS"}, "[3]": {"biological_target": "BAFFR-Fc (UniProt Q96RJ3)", "sequence (Q96RJ3 1-78)": "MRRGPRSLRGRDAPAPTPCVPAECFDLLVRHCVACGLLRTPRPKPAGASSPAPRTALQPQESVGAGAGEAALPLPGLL"}}}
{"substance": "BLyS-gelonin fusion toxin", "values": [{"measurement": "Kd", "setting": "[1]", "value": 6.2, "unit": "nM"}, {"measurement": "Kd", "setting": "[2]", "value": 0.8, "unit": "nM"}, {"measurement": "Kd", "setting": "[3]", "value": 2.6, "unit": "nM"}]}
